Reference: US12448436B2, “Antibody specifically binding to GRP94 or antigen-binding fragment thereof, and uses thereof” (KOOKMIN UNIVERSITY INDUSTRY ACADEMY COOPERATION FOUNDATION, priority 2020, dated 2025)
Where a chain is given by its changes, count along the chain named. “Also recorded” adds a separate entry of the source.

B1: B5: anti-GRP94 human IgG antibody; CDRs SEQ ID NOS: 1 to 6, VH SEQ ID NO: 7, VL SEQ ID NO: 8 (antibody, V domains shown)
VH: EVQLLESGGGLVQPGGSLRLSCAASGFTFSNYYMSWVRQAPGKGLEWVSGIYPNSGSTYYADSVKGRFTISRDNSKNTLYLQMNSLRAEDTAVYYCARDPLHPARFPFDYWGQGTLVTVSS
VL: QSVLTQPPSASGTPGQRVTISCTGSSSNIGNNAVSWYQQLPGTAPKLLIYADSHRPSGVPDRFSGSKSGTSASLAISGLRSEDEADYYCGAWDASLNAYVFGGGTKLTVL
modifications: Amino acid sequence of heavy chain variable of GRP94 B5; Amino acid sequence of light chain variable of GRP94 B5
B2: E5: anti-GRP94 human IgG antibody; CDRs SEQ ID NOS: 9 to 14, VH SEQ ID NO: 15, VL SEQ ID NO: 16 (antibody, V domains shown)
VH: EVQLLESGGGLVQPGGSLRLSCAASGFTFSNYAMSWVRQAPGKGLEWVSGISSSSGSTYYADSVKGRFTTSRDNSKNTLYLQMNSLRAEDTAVYYCARDRHPFSPNWFDYWGQGTLVTVSS
VL: B1 VL with T23S, S26P, N31S, A33T, S35T, G90A, A91S, A94D, A98G
modifications: Amino acid sequence of heavy chain variable of GRP94 E5; Amino acid sequence of light chain variable of GRP94 E5
B3: 3G7: anti-GRP94 human IgG antibody; CDRs SEQ ID NOS: 25 to 30, VH SEQ ID NO: 31, VL SEQ ID NO: 32 (antibody, V domains shown)
VH: EVQLLESGGGLVQPGGSLRLSCAASGFTFSNYSMSWVRQAPGKGLEWVSGIYYGSGNKYYADSVKGRFTISRDNSKNTLYLQMNSLRAEDTAVYYCAKNLASFDYWGQGTLVTVSS
VL: B1 VL with T23S, N31S, A33S, S35N, A51S, D52N, A91T, A94S, N97S, A98G
modifications: Amino acid sequence of heavy chain variable of GRP94 3G7; Amino acid sequence of light chain variable of GRP94 3G7

Columns and labels:
HCT8 cells = experiment: In vitro CRC proliferation assay, HCT8; assay type: cell-based, human; settings: 20 μg/mL; for cell index at the end point: 72 hours, MOCK 4.8±0.25; for cell growth inhibitory ability: end point, relative to the control PBS
Procedure: (§1) The four anti-GRP94 human IgG antibodies B5, E5, 2H5, and 3G7 of the present disclosure were examined in vitro for effect on CRC cell proliferation. […] The culture medium was removed by suction and the cells were washed with 10 mL of phosphate buffered saline (hereinafter PBS). After removal of PBS by suction, the cells were treated 2 mL of TrypLE Express Enzyme at 37° C. for 3 minutes in a 5% CO2 incubator. Thereafter, the cells were added with 8 mL of the culture medium, transferred to 15-mL tube, and centrifuged at 500×g for 5 minutes. After removal of the supernatant, the cells were suspended in the culture medium. From a small portion of the cell suspension, the cells were counted using the Countess II Automated Cell Counter. […] The 96-well plates were mounted on the Incucyte Zoom system. With the microscope magnification set at 4×, images were collected at intervals of 2 hours for 72 hours. From the collected images, cell growth was monitored using the IncuCyte FLR live content imaging system (Essen Bioscience, Ann Arbor, MI, USA).

HT29 cells = experiment: In vitro CRC proliferation assay, HT29; assay type: cell-based, human; settings: 20 μg/mL; for cell index at the end point: 72 hours, MOCK 2.94±0.04; for cell growth inhibitory ability: end point, relative to the control PBS
Procedure: as §1

[1] = test system: HCT116 subcutaneous xenograft; experiment: Tumor growth inhibition by sole administration, colorectal xenograft model; assay type: in vivo, Balb/c nude mice; settings: 10 mg/kg intravenous twice per week for six weeks; for tumor growth inhibition compared to PBS: n=9
Description: For use in assaying in-vivo efficacy of the four antibodies of the present disclosure, a subcutaneous xenograft mouse model was established by injecting the metastatic colorectal cancer cell line HCT116 (5×10^6 cells) into 6-week-old Balb/c nude mice.

LoVo cells = experiment: In vitro CRC proliferation assay, LoVo; assay type: cell-based, human; settings: 20 μg/mL; for cell index at the end point: 72 hours, MOCK 3.76±0.19; for cell growth inhibitory ability: end point, relative to the control PBS
Procedure: as §1

recombinant monkey GRP94 = recombinant monkey GRP94 (Macaca fascicularis, UniProt Q4R520); experiment: ELISA binding to recombinant monkey GRP94
Procedure: (§2) Each well of 96-well plates was coated with 0.1 μg of recombinant human GRP94 (rhGRP94), blocked with 3% (w/v) bovine serum albumin (BSA) in phosphate buffered saline (PBS) for 2 hours at 37° C., and incubated with 100 μL of GRP94 targeting IgG (20 μg/mL) for 2 hours at 37° C. The plates were washed thrice with 0.05% PBS-T, and 100 μL of a 500:1 dilution of the secondary antibody anti-human Fc Ab (Sigma-Aldrich) was added to each well. Incubation at 37° C. for 1 hour was followed by three rounds of washing with 0.05% PBS-T. Then, 100 μL of 3,3′,5,5′-tetramethylbenzidine (1-step ultra TMB) substrate solution was added to each well. Finally, optical densities were measured at 450 nm using a microplate reader (Synergy H1, BioTek).
(§3) After 96-well plates were coated with BSA, recombinant human GRP94, recombinant rat GRP94, and recombinant monkey GRP94, their binding affinity for each antibody (B5, E5, 2H5, or 3G7) was measured by ELISA.

[2] = Protein aggregation index (UV absorbance 280/340 nm); assay type: physicochemical; settings: antibody in PBS; 100×(Abs340/[Abs280−Abs340]); control HCl-aggregated GRP94 antigen
Procedure: To evaluate the production the antibodies (B5, E5, 2H5, and 3G7) of the present disclosure and the antibody aggregation after purification, each of the antibodies was added to PBS and absorbance was read at 280 nm and 340 nm using NanoDrop 2000 (Thermo Fisher Scientific). The protein aggregation index was calculated from UV absorbance according to the following equation. As a control, the GRP94 antigen that was induced by treatment with HCl to aggregate was used. Protein Aggregation Index=100×(Abs340/[Abs280−Abs340]) Equation 1

recombinant human GRP94 = target: T1, recombinant human GRP94 (Homo sapiens, UniProt P14625); experiment: ELISA binding to recombinant human GRP94; settings: high specificity stated for human and rat antigens
T1 construct: made in house; host or cells: Expi293 cells (pcDNA 3.4)
Procedure: as §2
The four GRP94 IgGs (B5, E5, 2H5, and 3G7) of the present disclosure were measured for equilibrium dissociation constant (KD). In this regard, each well of 96-well plates was coated with 100 ng of rhGRP94 and blocked with 3% (w/v) bovine serum albumin (BSA) in PBS at 37° C. for 2 hours. Next, the plates were incubated with a concentration gradient of 0 nM to 500 nM of each clone for the GRP94 IgGs at 37° C. for 2 hours. The use of a secondary antibody and the measurement of optical density were conducted as described for the ELISA.
as §3

recombinant rat GRP94 = recombinant rat GRP94 (Rattus norvegicus, UniProt Q66HD0); experiment: ELISA binding to recombinant rat GRP94; settings: high specificity stated for human and rat antigens
Procedure: as §2, §3

[3] = target: T2, rhGRP94 CTD fragment (part 4, Glu 602-Glu 799) (Homo sapiens, UniProt P14625); experiment: Epitope comparison ELISA, rhGRP94 fragment part 4; assay type: binding; settings: antibody 1 μg/mL, 100 ng fragment
T2 construct: Part; 4 (Glu 602-Glu 799) of the human GRP94 gene (Gene ID: 7184); made in house; host or cells: Expi293 expression system (pcDNA 3.4)
Description: To determine which portion (or domain) of the GRP94 protein is bound by the developed antibodies, GRP94 fragments part. 1 and part. 4 were constructed wherein part. 1 was composed of the N-terminal domain (NTD), the Ca^2+ binding domain, the middle domain (MD), and the C-terminal domain (CTD) while part. 4 was derived from part. 1 by cutting off the NTD, the Ca^2+ binding domain, and the MD. In brief, Part. 1 (Asp 22-Glu 799) and Part. 4 (Glu 602-Glu 799) of the human GRP94 gene (Gene ID: 7184) were synthesized and subcloned into pcDNA 3.4 (Invitrogen) mammalian expression vector to finally recombinant DNAs. Using the Expi293 expression system (Invitrogen), the proteins were expressed and purified. The purified antigens part. 1 and part. 4 were analyzed for molecular weight by SDS-PAGE.
Next, ELISA was carried out to examine whether the four antibodies of the present disclosure bind to part 1 and part 4. First, 100 ng of each of the rhGRP94 fragment parts 1 and 4 was fixed to a high binding plate by incubation at 4° C. for 14 hours (overnight binding, 14 hrs). The same amount of BSA was used as a negative control. Then, the plate was blocked with 3% BSA, followed by incubation at 37° C. for 2 hours with 100 μL containing each of the anti-GRP94 antibodies (B5, E5, 2H5, and 3G7) of the present disclosure at a density of 1 μg/mL. After three rounds of washing with PBS-T, the plate was treated at 37° C. for 1 hour with a 5000:1 dilution of anti-Fc-HRP (Catalog #31423 Invitrogen). Color development was induced using 1-step-ultra TMB (Invitrogen) for 10 minutes and then terminated with […] (2N). Absorbance at 450 nm was read.

recombinant rat GRP94, sequence (Q66HD0 22-804): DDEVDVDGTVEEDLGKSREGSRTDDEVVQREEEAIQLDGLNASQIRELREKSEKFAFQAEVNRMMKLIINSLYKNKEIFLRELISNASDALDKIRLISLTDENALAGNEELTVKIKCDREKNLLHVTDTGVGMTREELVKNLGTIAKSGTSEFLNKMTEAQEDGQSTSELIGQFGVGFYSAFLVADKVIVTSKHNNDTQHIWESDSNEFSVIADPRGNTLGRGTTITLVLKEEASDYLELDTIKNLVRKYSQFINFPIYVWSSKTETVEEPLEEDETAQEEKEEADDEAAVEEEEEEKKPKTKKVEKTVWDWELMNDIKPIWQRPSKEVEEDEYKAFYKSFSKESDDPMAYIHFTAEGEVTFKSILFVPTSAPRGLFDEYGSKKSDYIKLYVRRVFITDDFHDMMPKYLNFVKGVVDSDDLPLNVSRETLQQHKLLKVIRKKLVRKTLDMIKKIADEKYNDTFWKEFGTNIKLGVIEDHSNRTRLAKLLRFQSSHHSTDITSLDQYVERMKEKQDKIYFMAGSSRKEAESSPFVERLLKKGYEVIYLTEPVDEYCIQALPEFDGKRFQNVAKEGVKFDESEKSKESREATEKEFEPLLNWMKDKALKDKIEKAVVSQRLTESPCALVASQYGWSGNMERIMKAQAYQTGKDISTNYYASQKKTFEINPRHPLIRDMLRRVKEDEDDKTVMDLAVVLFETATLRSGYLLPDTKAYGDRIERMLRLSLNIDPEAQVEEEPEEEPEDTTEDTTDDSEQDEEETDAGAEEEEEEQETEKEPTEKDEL
recombinant monkey GRP94, sequence (Q4R520 22-804): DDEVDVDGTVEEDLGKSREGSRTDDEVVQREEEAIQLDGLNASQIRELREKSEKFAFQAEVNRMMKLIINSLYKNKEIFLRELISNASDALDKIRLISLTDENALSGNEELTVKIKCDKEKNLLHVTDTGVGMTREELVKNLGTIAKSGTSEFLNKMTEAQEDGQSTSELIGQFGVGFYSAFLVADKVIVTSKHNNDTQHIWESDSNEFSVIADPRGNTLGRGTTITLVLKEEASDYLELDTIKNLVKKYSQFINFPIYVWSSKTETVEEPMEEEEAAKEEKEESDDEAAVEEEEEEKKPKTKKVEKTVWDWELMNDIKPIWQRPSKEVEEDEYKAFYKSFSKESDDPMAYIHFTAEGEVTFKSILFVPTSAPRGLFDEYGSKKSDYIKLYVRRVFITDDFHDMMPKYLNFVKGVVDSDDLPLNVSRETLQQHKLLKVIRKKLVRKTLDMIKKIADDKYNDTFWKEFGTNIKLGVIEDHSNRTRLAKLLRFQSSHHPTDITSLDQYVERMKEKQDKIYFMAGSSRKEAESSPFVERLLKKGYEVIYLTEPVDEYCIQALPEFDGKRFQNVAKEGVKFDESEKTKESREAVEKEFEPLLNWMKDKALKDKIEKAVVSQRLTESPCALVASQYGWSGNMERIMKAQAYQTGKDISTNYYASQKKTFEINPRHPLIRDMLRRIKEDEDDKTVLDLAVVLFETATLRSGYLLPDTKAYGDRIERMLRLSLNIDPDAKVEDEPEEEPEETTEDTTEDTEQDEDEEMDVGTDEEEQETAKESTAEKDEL
T2 sequence (P14625 602-799): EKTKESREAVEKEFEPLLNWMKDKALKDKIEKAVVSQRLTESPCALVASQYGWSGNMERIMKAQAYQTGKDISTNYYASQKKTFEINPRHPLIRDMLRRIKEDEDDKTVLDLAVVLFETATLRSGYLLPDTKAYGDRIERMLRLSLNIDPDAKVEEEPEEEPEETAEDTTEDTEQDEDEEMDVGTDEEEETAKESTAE
T1 sequence (P14625 22-803): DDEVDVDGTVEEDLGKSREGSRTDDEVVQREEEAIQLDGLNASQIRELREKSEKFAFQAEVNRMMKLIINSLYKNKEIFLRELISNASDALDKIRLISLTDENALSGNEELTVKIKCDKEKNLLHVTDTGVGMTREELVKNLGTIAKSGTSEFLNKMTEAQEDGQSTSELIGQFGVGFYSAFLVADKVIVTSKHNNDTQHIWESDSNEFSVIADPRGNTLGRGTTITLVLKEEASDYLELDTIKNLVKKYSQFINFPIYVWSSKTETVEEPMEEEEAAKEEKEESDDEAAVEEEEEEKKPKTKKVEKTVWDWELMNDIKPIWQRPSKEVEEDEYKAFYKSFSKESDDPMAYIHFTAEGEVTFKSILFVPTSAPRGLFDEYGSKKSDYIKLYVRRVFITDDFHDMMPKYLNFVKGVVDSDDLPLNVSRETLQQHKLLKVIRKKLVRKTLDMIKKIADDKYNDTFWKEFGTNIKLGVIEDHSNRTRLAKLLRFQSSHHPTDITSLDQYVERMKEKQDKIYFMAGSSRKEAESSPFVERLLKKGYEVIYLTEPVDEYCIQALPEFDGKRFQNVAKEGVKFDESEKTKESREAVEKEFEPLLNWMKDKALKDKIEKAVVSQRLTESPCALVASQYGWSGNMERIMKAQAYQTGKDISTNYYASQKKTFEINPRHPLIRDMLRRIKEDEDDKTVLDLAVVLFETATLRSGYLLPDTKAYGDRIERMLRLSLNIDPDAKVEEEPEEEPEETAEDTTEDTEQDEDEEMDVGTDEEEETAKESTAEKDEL

Row | Molecule | cell index at the end point (HCT8 cells) | cell growth inhibitory ability (HCT8 cells) | cell index at the end point (HT29 cells) | cell growth inhibitory ability (HT29 cells) | tumor growth inhibition compared to PBS [1] [%] | cell index at the end point (LoVo cells) | cell growth inhibitory ability (LoVo cells) | binding to recombinant monkey GRP94 (recombinant monkey GRP94) | protein aggregation index [2] | binding to recombinant human GRP94 (recombinant human GRP94) | binding to recombinant rat GRP94 (recombinant rat GRP94) | binding to part 4 (Glu 602-Glu 799) [3] | inhibitory activity against tumor growth compared to the controls ([1]; controls PBS and hIgG)
1 | B1 | 3.15±0.21 | excellent inhibitory activity | 2.32±0.02 | statistically significant; also recorded: excellent inhibitory activity | 30 | 2.69±0.04 | statistically significant; also recorded: excellent inhibitory activity | bind | low | bind | bind | did not bind | –
2 | B2 | 3.33±0.31 | excellent inhibitory activity | 2.32±0.08 | statistically significant; also recorded: excellent inhibitory activity | – | 2.73±0.22 | statistically significant; also recorded: excellent inhibitory activity | bind | low | bind | bind | did not bind | did not exhibit inhibitory activity
3 | B3 | 3.40±0.16 | excellent inhibitory activity | 2.17±0.06 | statistically significant; also recorded: excellent inhibitory activity | 33 | 2.87±0.08 | statistically significant; also recorded: excellent inhibitory activity | bind | low | bind | bind | did not bind | –
